# In the nanobody polyreactivity screen of Harvey et al. (2022):
# Assay: yeast display, Sf9 membrane polyspecificity reagent, FACS + sequencing; frameworks hold sequencing errors
# Summary of the method: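 Nanobodies came from a synthetic yeast display library in Saccharomyces cerevisiae BJ5465, induced with galactose for 36–48 hours and stained for 1 hour at 4 °C with 10% biotinylated, detergent-solubilized Sf9 membrane reagent. Cells were enriched on streptavidin microbeads and then FACS-sorted, with low and high (top ~1%) gates set on anti-HA fluorescence for expression and streptavidin fluorescence for reagent binding. Each polyreactivity label reflects the gate a clone came from. Genes were amplified by colony PCR, sequenced by MiSeq 2 × 250 and filtered by CDR length.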
row,Sequence,polyreactivity (PSR sort gate)
1,QVQLVESGGGLVQAGGSLRLSCAASGSIFWVYAMGWYRQAPGKERELVAAISSGGSTNYADSVKGRFTISRDNAKNTVYLQMNSLKPEDTAVYYCAAVIRTVRERYGFWGQGTQVTVSS,high polyreactivity
2,QVQLVESGGGLVQAGGSLRLSCAASGFTFYRNAMGWYRPAPGKERELVAAISGRGGGTYYADSVKGRFTISRDNAKNTVYLQMNSLKPEDTAVYYCNARLSWSAFGYWGQGTQVTVSS,high polyreactivity
3,QVQLQESGGGLVQAGGSLRLSCAASGSISRLDYMGWYRQASGKERELVAAIDNGSTTYYADSVKGRLTISRDNAKYTVYLQMNSLKPADTAVYFCAAVRGRGGTHAYWGQGTQVTVSG,low polyreactivity
4,QVHLVESGGGLVQARVSLRLSCAASGSTFFVYTMGWYRQAPGKETEFVATIRRGGNTYADSVKGRFTISRDNAKNSVYLQMNSLKPEDTAVYFCAVVVYQGFRSKYYYWGQGTQVTVSS,high polyreactivity
5,QVQLVESGGGLVQAGGSLRLSCAASGLTFQSYAMGWYRQAPGKEREFAYYADSVKGRFTMSRDNAKNTVYLQMNSLKPEDTAVYYCNGADDEGDRPITQVGYDYWGQGTQVTVSS,low polyreactivity
6,QVQLVESGGGLVQAGGSLRLSCAASGGTITPYAMGWYRQAPGKERELVAAISRSGARTYYADSVKGRFTISRDNAKNTVYLQMNSLKPEDTAVYYCAKTFSGYRFDYWGQGTQVTVSS,high polyreactivity
7,QVQLVESGGGLVQAGGSLRLSCAASGSTFGWNAMGWYRQAPGKERELVAAISSSGGITYYADSVKGRFTISRDNAKNTVYLQMNSLKPEDSAVYYCAAERDDDWVNYWGQGTQVTVSS,low polyreactivity
8,QVQLVESGGGLVQAGGSLRLSCAASGFTFRANGMGWYRQAPGKETELVATITSGGTTNYADSVKGRFTISRDNAKNTVYLQMNSLKPEDTAVYYCAKRFGPAYFRLYDYWGQGTQVTVSS,low polyreactivity
9,QVQLVESGGGLVQAGGSLRLSCAASGFTFSVYVIGWYRQAPGKERELVAAISSGGDTTYADSVKGRFTISRDNAKNTVYLQMNSLKPEDTAVYYCADYRVILYYLYDYWGQGTQVTVSS,low polyreactivity
10,QVQLVESGGGLVQAGGSLRLSCAASGSIFGYYAMGWYRQAPGKEREFVAAIRSSGGSTYYADSVKGRFTISRDNAKNTVYLQMNSLKPEDTAVYYCAAGGYPTFFKYGYWGQGTQVTVSS,high polyreactivity
11,QVQLVESGGGLVQAGGSLRLSCAASGFTFVSNAMGWYRQAPGKERELVADITSDGSTNYADSVKGRFTISRDNAKNTVYLQMNSLKPEDTAVYYCATDQRSHTWVNQFDYWGQGTQVTVSS,low polyreactivity
12,QVQLVESGGGLVQAGGSLRLSCAASGIIFGFNAMGWYRQAPGKETELVAAINGDDSTYYADSVKGRFTISRDNAKNTVYLQMNSLKPEDTAVYYCAARYYRYLTFTGELLVYYWGQGTQVTVSS,low polyreactivity
13,QVQLVESGGGLVQAGGSLRLSFAASGFTFCIYAMGWYRQAPGKERELVAAINVSEGSTYYADSVKGRFTISRDNAKNTVYLQMNSLKPEDTAVYYCDAYLYDTIYTSYREYDYWGQGTQVTVSS,low polyreactivity
14,QDQHVESGGGLVQAGGSLRLSCAASGLTSLGNAMGWYRQAPGKERELVAAITRTGTSTYYADSVKGRFTISRDNAKNTVYLQMNSLKPEDTAVYYCAADWWYGYSNYDYWGQGTQVTVSS,low polyreactivity
15,QVQLVESGGGLVQAGGSLRLSCAASGSIFRPNAMRWYRQAPGKERELVAAISSGDSTNYADSVKGRFTISRDNAKNTVYLLMNSLKAEDTAVYYCNTDKYSESYRSYEYWGQGTQVTVSS,low polyreactivity
16,QDQHVESVGGLVQAGGSLRLSCAASGSIIPLYAMGWYRQAPGKERELVAAISSRGGSTYYADSVKGRFSISRDNAKNTVYLQMKSLKPEDTAVYYCAVDTPSPSRGPRFNYWGQGTQVTVSS,high polyreactivity
17,QVQLVESGGGLVQAGGSLRLICAASGSIFYRYTMGWYRQAPGKERELVAAISSRGGSTYYADSVKGRFTISRDNAKNTVYLQMNSLKPEYTAVYYCAARFSYWAPSKGYGYWGQGTQVTVSS,high polyreactivity
18,QVQLEESGGGLVQAGGSLRLSCAASGRIFPYYPMGWYRQAPGKETELVATISGGGSTYYADSVKGRFTISRDNAKNTFYLQMNSLKPEDTAVYYCSARSWLRWASTPQWYRYEYWGQGTQVTVSS,low polyreactivity
19,QVQLVESGGGLVQAGGRLRLSCAASGSIFGEYAMGWYRQAPGKERELVADITTGGNTNYADSVKGRFTISRDNAKNTVYLQMNSLKPEDTAVYYCNAYGNTYGYWWFGYWGQGTQVTVSS,low polyreactivity
20,QVQLVESCGGLVQAGGSLRLSCAPSGSTIPPNAMGWNRQAPRQERELVADSSDSSTSYADSVKGRFSISRDNAKNTVYLQMKSQKPEDTAVYYCAAADAGLRSKSYGQQYDYWGQGTQVTVSS,low polyreactivity
21,QVQLVESGGGLGQAGGSLRLSCAASGRIFFGNARGWYRQAPGKEREFVAAISLTGVTTSYADSVKGRFTISRDNAKNTVYLQMNSLKPEDTAVYYCARDYSYYTHAYDYWGQGTQVTVSS,low polyreactivity
22,QVQLVESGGGVGQAGGSLRLSCAASGLSCVDYAMGWYRQAPGKERELVAAISTTGGSTYYADSVKGRFTISRDNAKNTVYLQMKSLKPEDTAVYYCNARFVHHSWGTNYYWGQGTQVTVSS,high polyreactivity
